Source: US20180155451A1 (published 2018)

B1: GpH7-B3 variant K326_10E/GpL16-k0 (antibody, human IgG1, kappa)
heavy: not shown
light: DIVMTQSPLSLPVTPGEPASISCQASESLVHSNRNTYLHWYLQKPGQSPQLLIYKVSNRFSGVPDRFSGSGSGTDFTLKISRVEAEDVGVYYCSQNTHVPPTFGQGTKVEIERTVAAPSVFIFPPSDEQLKSGTASVVCLLNNFYPREAKVQWKVDNALQSGNSQESVTEQDSKDSTYSLSSTLTLSKADYEKHKVYACEVTHQGLSSPVTKSFNRGEC
notes: homodimerized antibody, mutation in both H chains; also called K326_10E Ho Ab
B2: GpH7-B3 variant K326_19Q/GpL16-k0 (antibody, human IgG1, kappa)
heavy: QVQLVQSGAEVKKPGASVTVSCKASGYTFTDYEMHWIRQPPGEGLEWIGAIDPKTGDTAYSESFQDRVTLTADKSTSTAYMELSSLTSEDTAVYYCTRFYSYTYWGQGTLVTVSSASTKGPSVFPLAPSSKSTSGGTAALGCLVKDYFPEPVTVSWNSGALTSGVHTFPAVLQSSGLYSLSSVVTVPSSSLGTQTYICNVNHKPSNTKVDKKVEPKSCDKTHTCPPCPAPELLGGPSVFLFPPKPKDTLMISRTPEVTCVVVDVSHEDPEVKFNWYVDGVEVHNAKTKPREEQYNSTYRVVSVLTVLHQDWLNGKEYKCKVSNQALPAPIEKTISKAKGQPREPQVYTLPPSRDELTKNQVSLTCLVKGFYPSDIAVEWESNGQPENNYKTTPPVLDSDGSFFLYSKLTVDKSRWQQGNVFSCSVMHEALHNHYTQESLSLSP
light: B1 light
notes: homodimerized antibody, mutation in both H chains; also called K326_19Q Ho Ab
B3: GpH7-B3 variant K334_16H/GpL16-k0 (antibody, human IgG1, kappa)
heavy: not shown
light: B1 light
notes: homodimerized antibody, mutation in both H chains; also called K334_16H Ho Ab
B4: GpH7-B3 variant I336_16H/GpL16-k0 (antibody, human IgG1, kappa)
heavy: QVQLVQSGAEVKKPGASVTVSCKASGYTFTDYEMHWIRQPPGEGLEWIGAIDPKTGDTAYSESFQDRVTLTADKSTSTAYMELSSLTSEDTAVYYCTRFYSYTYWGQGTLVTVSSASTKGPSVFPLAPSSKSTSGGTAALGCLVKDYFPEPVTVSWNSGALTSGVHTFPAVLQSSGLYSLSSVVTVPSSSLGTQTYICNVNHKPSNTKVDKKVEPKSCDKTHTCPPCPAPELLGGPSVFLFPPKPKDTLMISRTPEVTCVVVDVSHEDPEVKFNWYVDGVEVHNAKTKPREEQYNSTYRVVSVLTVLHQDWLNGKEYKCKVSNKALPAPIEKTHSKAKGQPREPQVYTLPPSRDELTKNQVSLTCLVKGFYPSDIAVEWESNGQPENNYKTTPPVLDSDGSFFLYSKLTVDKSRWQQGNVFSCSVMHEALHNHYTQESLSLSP
light: B1 light
notes: homodimerized antibody, mutation in both H chains; also called I336_16H Ho Ab
B5: GpH7-B3 variant K326_08L/GpL16-k0 (antibody, human IgG1, kappa)
heavy: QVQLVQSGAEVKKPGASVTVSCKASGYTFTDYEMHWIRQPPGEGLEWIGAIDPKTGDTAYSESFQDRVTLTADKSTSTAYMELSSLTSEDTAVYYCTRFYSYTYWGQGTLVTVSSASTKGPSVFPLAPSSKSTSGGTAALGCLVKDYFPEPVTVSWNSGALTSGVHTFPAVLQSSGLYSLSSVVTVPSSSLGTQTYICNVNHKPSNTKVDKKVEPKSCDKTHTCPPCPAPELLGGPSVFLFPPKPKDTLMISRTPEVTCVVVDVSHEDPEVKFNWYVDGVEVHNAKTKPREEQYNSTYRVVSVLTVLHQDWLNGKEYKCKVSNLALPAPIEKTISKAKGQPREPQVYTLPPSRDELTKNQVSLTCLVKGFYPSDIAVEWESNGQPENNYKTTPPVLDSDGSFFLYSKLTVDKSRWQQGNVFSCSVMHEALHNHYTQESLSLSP
light: B1 light
notes: homodimerized antibody, mutation in both H chains; also called K326_08L Ho Ab
B6: GpH7-B3 variant K326_20W/GpL16-k0 (antibody, human IgG1, kappa)
heavy: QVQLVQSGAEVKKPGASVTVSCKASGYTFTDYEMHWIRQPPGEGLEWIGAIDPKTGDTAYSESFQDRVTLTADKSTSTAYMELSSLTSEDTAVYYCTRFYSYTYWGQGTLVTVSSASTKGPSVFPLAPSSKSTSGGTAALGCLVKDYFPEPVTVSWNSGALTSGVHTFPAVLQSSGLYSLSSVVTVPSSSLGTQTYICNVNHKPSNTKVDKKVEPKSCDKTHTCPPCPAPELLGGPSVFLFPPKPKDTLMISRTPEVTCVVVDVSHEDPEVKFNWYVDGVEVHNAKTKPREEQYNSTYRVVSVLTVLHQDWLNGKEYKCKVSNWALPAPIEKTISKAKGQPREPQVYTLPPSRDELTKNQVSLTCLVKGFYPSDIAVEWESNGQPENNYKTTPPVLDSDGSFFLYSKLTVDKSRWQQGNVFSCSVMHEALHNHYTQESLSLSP
light: B1 light
notes: homodimerized antibody, mutation in both H chains; also called K326_20W Ho Ab
B7: GpH7-B3 variant K326_06M/GpL16-k0 (antibody, human IgG1, kappa)
heavy: not shown
light: B1 light
notes: homodimerized antibody, mutation in both H chains; also called K326_06M Ho Ab
B8: GpH7-B3 variant K326_03V/GpL16-k0 (antibody, human IgG1, kappa)
heavy: not shown
light: B1 light
notes: homodimerized antibody, mutation in both H chains; also called K326_03V Ho Ab
B9: GpH7-B3 variant K334_05P/GpL16-k0 (antibody, human IgG1, kappa)
heavy: not shown
light: B1 light
notes: homodimerized antibody, mutation in both H chains; also called K334_05P Ho Ab
B10: GpH7-B3 variant K326_07I/GpL16-k0 (antibody, human IgG1, kappa)
heavy: not shown
light: B1 light
notes: homodimerized antibody, mutation in both H chains; also called K326_07I Ho Ab
B11: GpH7-B3 variant K334_14T/GpL16-k0 (antibody, human IgG1, kappa)
heavy: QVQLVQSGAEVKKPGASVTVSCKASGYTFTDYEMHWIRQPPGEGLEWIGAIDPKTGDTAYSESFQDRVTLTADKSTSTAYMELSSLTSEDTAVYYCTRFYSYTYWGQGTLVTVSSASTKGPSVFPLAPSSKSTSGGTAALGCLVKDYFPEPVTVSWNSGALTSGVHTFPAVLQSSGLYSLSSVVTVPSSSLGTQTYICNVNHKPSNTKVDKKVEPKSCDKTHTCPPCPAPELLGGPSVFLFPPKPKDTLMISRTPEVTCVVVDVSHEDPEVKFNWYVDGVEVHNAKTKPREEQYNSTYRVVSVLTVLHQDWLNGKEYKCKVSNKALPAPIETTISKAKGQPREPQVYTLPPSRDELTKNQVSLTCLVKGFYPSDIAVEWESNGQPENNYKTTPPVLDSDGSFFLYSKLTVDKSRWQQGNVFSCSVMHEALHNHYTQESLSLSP
light: B1 light
notes: homodimerized antibody, mutation in both H chains; also called K334_14T Ho Ab
B12: GpH7-B3 variant I336_15Y/GpL16-k0 (antibody, human IgG1, kappa)
heavy: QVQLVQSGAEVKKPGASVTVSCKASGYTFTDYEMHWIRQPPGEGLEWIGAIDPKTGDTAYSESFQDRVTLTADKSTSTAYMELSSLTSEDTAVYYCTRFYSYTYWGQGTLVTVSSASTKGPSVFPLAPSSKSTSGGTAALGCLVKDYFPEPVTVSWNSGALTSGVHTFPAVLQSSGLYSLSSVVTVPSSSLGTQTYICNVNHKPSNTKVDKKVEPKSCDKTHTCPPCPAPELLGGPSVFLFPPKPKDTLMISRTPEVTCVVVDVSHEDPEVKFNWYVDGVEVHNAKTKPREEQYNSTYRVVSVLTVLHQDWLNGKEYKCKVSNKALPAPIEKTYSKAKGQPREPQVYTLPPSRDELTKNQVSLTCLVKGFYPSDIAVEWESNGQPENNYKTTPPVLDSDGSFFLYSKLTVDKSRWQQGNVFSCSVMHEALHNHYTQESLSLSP
light: B1 light
notes: homodimerized antibody, mutation in both H chains; also called I336_15Y Ho Ab
B13: GpH7-B3 variant K334_19Q/GpL16-k0 (antibody, human IgG1, kappa)
heavy: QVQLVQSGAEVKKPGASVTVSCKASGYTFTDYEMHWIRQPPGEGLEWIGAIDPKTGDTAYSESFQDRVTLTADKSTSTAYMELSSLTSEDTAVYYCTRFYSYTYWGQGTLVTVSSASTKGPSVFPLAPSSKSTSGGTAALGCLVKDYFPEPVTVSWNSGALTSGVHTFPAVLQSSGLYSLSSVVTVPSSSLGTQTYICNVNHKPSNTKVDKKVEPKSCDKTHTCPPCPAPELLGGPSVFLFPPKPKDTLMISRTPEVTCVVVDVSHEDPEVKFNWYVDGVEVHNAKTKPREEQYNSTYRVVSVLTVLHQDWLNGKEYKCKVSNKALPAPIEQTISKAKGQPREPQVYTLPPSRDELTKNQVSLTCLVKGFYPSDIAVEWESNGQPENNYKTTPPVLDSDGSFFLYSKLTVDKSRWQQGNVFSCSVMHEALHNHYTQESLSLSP
light: B1 light
notes: homodimerized antibody, mutation in both H chains; also called K334_19Q Ho Ab
B14: GpH7-B3 variant K334_18N/GpL16-k0 (antibody, human IgG1, kappa)
heavy: not shown
light: B1 light
notes: homodimerized antibody, mutation in both H chains; also called K334_18N Ho Ab
B15: GpH7-B3 variant K334_07I/GpL16-k0 (antibody, human IgG1, kappa)
heavy: not shown
light: B1 light
notes: homodimerized antibody, mutation in both H chains; also called K334_07I Ho Ab
B16: GpH7-B3 variant L328_15Y/GpL16-k0 (antibody, human IgG1, kappa)
heavy: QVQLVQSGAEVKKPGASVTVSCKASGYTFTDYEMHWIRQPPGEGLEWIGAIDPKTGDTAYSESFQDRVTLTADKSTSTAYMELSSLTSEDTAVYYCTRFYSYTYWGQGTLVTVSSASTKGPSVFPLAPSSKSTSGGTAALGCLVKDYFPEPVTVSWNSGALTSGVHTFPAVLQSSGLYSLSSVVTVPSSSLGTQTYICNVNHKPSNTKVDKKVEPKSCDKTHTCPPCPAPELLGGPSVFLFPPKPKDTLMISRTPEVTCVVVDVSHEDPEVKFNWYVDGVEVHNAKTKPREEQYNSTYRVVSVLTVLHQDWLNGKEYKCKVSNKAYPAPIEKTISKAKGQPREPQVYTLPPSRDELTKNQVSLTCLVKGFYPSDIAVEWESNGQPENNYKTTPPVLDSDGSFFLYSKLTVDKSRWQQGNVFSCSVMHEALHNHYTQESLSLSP
light: B1 light
notes: homodimerized antibody, mutation in both H chains; also called L328_15Y Ho Ab
B17: GpH7-B3 variant K326_09D/GpL16-k0 (antibody, human IgG1, kappa)
heavy: not shown
light: B1 light
notes: homodimerized antibody, mutation in both H chains; also called K326_09D Ho Ab
B18: GpH7-B3 variant K334_09D/GpL16-k0 (antibody, human IgG1, kappa)
heavy: not shown
light: B1 light
notes: homodimerized antibody, mutation in both H chains; also called K334_09D Ho Ab
B19: GpH7-B3 variant K334_04F/GpL16-k0 (antibody, human IgG1, kappa)
heavy: not shown
light: B1 light
notes: homodimerized antibody, mutation in both H chains; also called K334_04F Ho Ab
B20: GpH7-B3 variant K334_03V/GpL16-k0 (antibody, human IgG1, kappa)
heavy: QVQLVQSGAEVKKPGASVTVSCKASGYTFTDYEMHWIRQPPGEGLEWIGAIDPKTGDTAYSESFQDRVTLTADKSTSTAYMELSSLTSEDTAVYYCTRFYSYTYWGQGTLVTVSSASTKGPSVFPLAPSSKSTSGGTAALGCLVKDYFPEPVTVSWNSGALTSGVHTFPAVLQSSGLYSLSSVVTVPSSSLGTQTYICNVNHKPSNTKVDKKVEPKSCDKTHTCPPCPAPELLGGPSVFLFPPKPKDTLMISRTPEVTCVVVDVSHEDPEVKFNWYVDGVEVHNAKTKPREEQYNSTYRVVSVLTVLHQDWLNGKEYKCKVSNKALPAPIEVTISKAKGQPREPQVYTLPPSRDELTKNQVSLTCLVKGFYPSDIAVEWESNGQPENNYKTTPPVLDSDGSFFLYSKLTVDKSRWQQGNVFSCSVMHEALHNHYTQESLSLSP
light: B1 light
notes: homodimerized antibody, mutation in both H chains; also called K334_03V Ho Ab
B21: GpH7-B3 variant K326_04F/GpL16-k0 (antibody, human IgG1, kappa)
heavy: not shown
light: B1 light
notes: homodimerized antibody, mutation in both H chains; also called K326_04F Ho Ab
B22: GpH7-B3 variant K334_02A/GpL16-k0 (antibody, human IgG1, kappa)
heavy: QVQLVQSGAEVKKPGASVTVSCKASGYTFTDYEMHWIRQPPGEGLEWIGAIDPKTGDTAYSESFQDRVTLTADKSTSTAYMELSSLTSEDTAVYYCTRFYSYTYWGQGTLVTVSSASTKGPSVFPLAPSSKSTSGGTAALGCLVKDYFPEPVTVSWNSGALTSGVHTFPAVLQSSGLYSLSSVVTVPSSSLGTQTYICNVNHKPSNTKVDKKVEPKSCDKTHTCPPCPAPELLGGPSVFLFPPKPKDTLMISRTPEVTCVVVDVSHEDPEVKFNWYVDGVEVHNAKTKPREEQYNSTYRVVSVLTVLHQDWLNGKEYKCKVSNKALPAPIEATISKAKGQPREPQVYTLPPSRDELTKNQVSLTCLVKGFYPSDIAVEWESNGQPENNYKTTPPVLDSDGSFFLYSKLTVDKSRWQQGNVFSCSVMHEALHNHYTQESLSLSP
light: B1 light
notes: homodimerized antibody, mutation in both H chains; also called K334_02A Ho Ab

target: T1, FcγRIa extracellular domain with C-terminal His tag (human, UniProt P12314 16-292); experiment: SPR (Biacore), relative FcγRIa binding, GpH7-B3/GpL16-k0 (HoCon Ab) = 100
T1 construct: extracellular domain; soluble analyte in Biacore; also called FcgRI; CD64
T1 sequence (P12314 16-292): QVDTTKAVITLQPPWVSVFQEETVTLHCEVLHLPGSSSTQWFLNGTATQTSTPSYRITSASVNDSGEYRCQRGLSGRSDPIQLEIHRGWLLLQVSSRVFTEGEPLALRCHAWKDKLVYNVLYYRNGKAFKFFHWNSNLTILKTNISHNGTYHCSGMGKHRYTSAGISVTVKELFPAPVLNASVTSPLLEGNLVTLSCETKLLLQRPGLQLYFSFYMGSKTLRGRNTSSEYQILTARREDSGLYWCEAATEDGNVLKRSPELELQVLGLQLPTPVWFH

| Ho/Con_1a | Binder |
| --- | --- |
| 105 % of control | B1 |
| 105 % of control | B2 |
| 106 % of control | B3 |
| 114 % of control | B4 |
| 101 % of control | B5 |
| 104 % of control | B6 |
| 104 % of control | B7 |
| 103 % of control | B8 |
| 106 % of control | B9 |
| 102 % of control | B10 |
| 106 % of control | B11 |
| 110 % of control | B12 |
| 106 % of control | B13 |
| 108 % of control | B14 |
| 107 % of control | B15 |
| 104 % of control | B16 |
| 106 % of control | B17 |
| 108 % of control | B18 |
| 106 % of control | B19 |
| 105 % of control | B20 |
| 102 % of control | B21 |
| 106 % of control | B22 |
